# Measured values: the supplement of paper PMC10724198
# ± gives the standard deviation of the averaged measurements.
# How the values were obtained:
# Saccharomyces cerevisiae [1] = assay: protein stability index of tFT-peptide fusion (C-terminal peptide) (PSI (0-1 scale)); higher = more stable (slower turnover)
# Experimental: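 MPS profiling in S. cerevisiae of the tFT-X12 degron library: putative degron peptides plus stable controls, 12 aa, fused to the C-terminus of a sfGFP-mCherry timer. Cells are FACS-sorted into 8 mCherry/sfGFP bins and deep-sequenced. PSI runs from 0 (unstable) to 1 (stable). Backgrounds are wild type, das1Δ and doa10Δ at 30 °C, and wild type, das1Δ, cdc34-1 and cdc53-1 at 37 °C; 2-3 technical replicates each.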
# Saccharomyces cerevisiae [2] = assay: as above; details: genetic background: wild type; temperature: 30 C
# [3] = genetic background: cdc34-1, temperature: 37 C
# [4] = genetic background: das1 deletion, temperature: 30 C
# [5] = genetic background: das1 deletion, temperature: 37 C
# [6] = genetic background: doa10 deletion, temperature: 30 C
# [7] = genetic background: wild type, temperature: 30 C
# [8] = genetic background: wild type, temperature: 37 C
# [9] = genetic background: cdc53-1, temperature: 37 C
# 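Further: PSI is a weighted mean of sequencing reads over stability bins, variants kept only with over 10 reads, mCherry proximal and sfGFP distal, peptide attached via GGGS linker.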
Sequence,protein stability index (Saccharomyces cerevisiae [1]; [3]),protein stability index (Saccharomyces cerevisiae [1]; [4]),protein stability index (Saccharomyces cerevisiae [1]; [5]),protein stability index (Saccharomyces cerevisiae [1]; [6]),protein stability index (Saccharomyces cerevisiae [1]; [7]),protein stability index (Saccharomyces cerevisiae [1]; [8]),protein stability index (Saccharomyces cerevisiae [2]),protein stability index (Saccharomyces cerevisiae [1]; [9])
FLLLVFGLLIDS,0.183 ± 0.004,0.246 ± 0.067,0.413 ± 0.022,0.188 ± 0.017,0.222 ± 0.03,0.379 ± 0.11,0.338 ± 0.016,–
FLLYRFSLVGCF,0.0567 ± 0.0082,0.123 ± 0.031,0.194 ± 0.011,0.0828 ± 0.021,0.108 ± 0.032,0.189 ± 0.011,0.172 ± 0.026,0.108 ± 0.02
FLLYVITYRSET,0.151 ± 0.0098,0.21 ± 0.03,0.442 ± 0.047,0.161 ± 0.0042,0.225 ± 0.025,0.378 ± 0.038,0.335 ± 0.046,0.304 ± 0.046
FLPLLFFFFFRF,0.377 ± 0.0075,0.391 ± 0.037,0.4846 ± 0.0032,0.569 ± 0.012,0.403 ± 0.022,0.479 ± 0.023,0.485 ± 0.008,0.292 ± 0.0066
FLPSLSLPLLLF,0.555 ± 0.0068,0.425 ± 0.035,0.573 ± 0.015,0.376 ± 0.036,0.346 ± 0.017,0.479 ± 0.018,0.4318 ± 0.0012,0.549 ± 0.02
FLSLVIVLRWFL,0.278 ± 0.048,0.255 ± 0.022,0.381 ± 0.01,0.298 ± 0.021,0.242 ± 0.024,0.346 ± 0.02,0.347 ± 0.042,0.303 ± 0.045
FLWAVSLCRSLV,0.607 ± 0.029,0.548 ± 0.035,0.662 ± 0.015,0.178 ± 0.017,0.218 ± 0.026,0.385 ± 0.014,0.312 ± 0.029,0.655 ± 0.022
FMRKLVVLVVLG,0.257 ± 0.029,0.222 ± 0.031,0.4342 ± 0.0023,0.1923 ± 0.0019,0.206 ± 0.028,0.417 ± 0.046,0.347 ± 0.089,0.307 ± 0.013
FMVYRIHSSAVM,0.127 ± 0.017,0.251 ± 0.06,0.149 ± 0.006,0.265 ± 0.028,0.257 ± 0.038,0.14 ± 0.014,0.158 ± 0.0045,0.172 ± 0.014
FPGPPSPPPSYF,0.699 ± 0.048,0.639 ± 0.01,0.766 ± 0.0078,0.6435 ± 0.0011,0.6466 ± 0.0022,0.7451 ± 0.0065,0.706 ± 0.011,0.776 ± 0.001
FPVWTALLTVRA,0.0896 ± 0.022,0.181 ± 0.035,0.259 ± 0.0096,0.14 ± 0.024,0.189 ± 0.014,0.22 ± 0.029,0.262 ± 0.016,0.128 ± 0.015
FRCRFLLPFYSV,0.673 ± 0.013,0.632 ± 0.0089,0.733 ± 0.01,0.403 ± 0.013,0.438 ± 0.014,0.603 ± 0.0033,0.482 ± 0.019,0.724 ± 0.0096
FRLCQRPVFLLS,0.586 ± 0.054,0.542 ± 0.018,0.676 ± 0.0091,0.182 ± 0.0059,0.22 ± 0.017,0.408 ± 0.02,0.35 ± 0.0061,0.669 ± 0.014
FSCSRNVLVTVV,0.192 ± 0.029,0.229 ± 0.029,0.344 ± 0.0087,0.178 ± 0.015,0.209 ± 0.013,0.256 ± 0.0056,0.32 ± 0.049,0.197 ± 0.019
FSFPIIFFGMFL,0.445 ± 0.021,0.394 ± 0.02,0.542 ± 0.006,0.426 ± 0.019,0.324 ± 0.033,0.51 ± 0.021,0.415 ± 0.0083,0.463 ± 0.0054
FSFSFWALLWFP,0.495 ± 0.029,0.438 ± 0.022,0.531 ± 0.0093,0.48 ± 0.031,0.429 ± 0.02,0.537 ± 0.02,0.466 ± 0.0093,0.54 ± 0.017
FSFVVRMFFRIL,0.218 ± 0.009,0.39 ± 0.038,0.408 ± 0.022,0.0869 ± 0.019,0.0811 ± 0.015,0.0988 ± 0.0082,0.154 ± 0.014,0.266 ± 0.0039
FSLSLFPYPFSL,0.698 ± 0.022,0.686 ± 0.02,0.765 ± 0.011,0.686 ± 0.01,0.672 ± 0.021,0.755 ± 0.018,0.755 ± 0.03,0.764 ± 0.045
FSSFLGFIRFFV,0.661 ± 0.088,0.655 ± 0.022,0.751 ± 0.016,0.286 ± 0.018,0.315 ± 0.022,0.59 ± 0.04,0.426 ± 0.052,0.751 ± 0.0091
FTLFFVASVLDL,0.48 ± 0.021,0.378 ± 0.03,0.53241 ± 0.00048,0.358 ± 0.007,0.386 ± 0.026,0.511 ± 0.011,0.446 ± 0.0073,0.518 ± 0.01

Sequence,protein stability index (Saccharomyces cerevisiae [1]; [3]),protein stability index (Saccharomyces cerevisiae [1]; [4]),protein stability index (Saccharomyces cerevisiae [1]; [5]),protein stability index (Saccharomyces cerevisiae [1]; [6]),protein stability index (Saccharomyces cerevisiae [1]; [7]),protein stability index (Saccharomyces cerevisiae [1]; [8]),protein stability index (Saccharomyces cerevisiae [2]),protein stability index (Saccharomyces cerevisiae [1]; [9])
FVGLFEYILLFV,0.186 ± 0.009,0.201 ± 0.028,0.358 ± 0.0079,0.263 ± 0.0056,0.201 ± 0.028,0.348 ± 0.0072,0.29 ± 0.036,0.167 ± 0.029
FVLLTFLFFWQF,0.349 ± 0.014,0.321 ± 0.031,0.476 ± 0.019,0.287 ± 0.007,0.299 ± 0.018,0.441 ± 0.016,0.328 ± 0.03,0.441 ± 0.028
FVLWYFCCVGCM,0.241 ± 0.017,0.232 ± 0.026,0.366 ± 0.011,0.196 ± 0.015,0.226 ± 0.03,0.342 ± 0.03,0.321 ± 0.016,0.305 ± 0.018
FVRCFWPFVFVF,0.17 ± 0.01,0.222 ± 0.031,0.332 ± 0.0095,0.139 ± 0.0072,0.126 ± 0.0099,0.14 ± 0.012,0.203 ± 0.023,0.142 ± 0.021
FVRGWGIVFSLA,0.571 ± 0.031,0.438 ± 0.036,0.594 ± 0.015,0.225 ± 0.012,0.268 ± 0.016,0.467 ± 0.011,0.41 ± 0.01,0.599 ± 0.023
FVWWFFFLSVVS,0.277 ± 0.0019,0.265 ± 0.032,0.3987 ± 0.0029,0.255 ± 0.016,0.216 ± 0.018,0.334 ± 0.025,0.26 ± 0.018,0.306 ± 0.023
FWILLRVLIFVL,0.176 ± 0.027,0.18 ± 0.033,0.321 ± 0.0095,0.182 ± 0.0047,0.175 ± 0.028,0.246 ± 0.03,0.266 ± 0.011,0.172 ± 0.0087
FYFMGFFFGLGM,0.589 ± 0.021,0.519 ± 0.047,0.617 ± 0.057,0.481 ± 0.016,0.504 ± 0.016,0.597 ± 0.023,0.516 ± 0.046,0.627 ± 0.052
FYLFPSLPLLLL,0.424 ± 0.018,0.422 ± 0.018,0.544 ± 0.03,0.477 ± 0.023,0.339 ± 0.03,0.46 ± 0.0072,0.452 ± 0.044,0.432 ± 0.022
FYLSFWFLIFFF,0.227 ± 0.011,0.273 ± 0.031,0.353 ± 0.029,0.325 ± 0.036,0.215 ± 0.036,0.315 ± 0.017,0.312 ± 0.0092,0.251 ± 0.023
GCCFVCSVFWWG,0.407 ± 0.0055,0.348 ± 0.031,0.528 ± 0.0081,0.327 ± 0.014,0.353 ± 0.015,0.507 ± 0.011,0.431 ± 0.011,0.493 ± 0.0055
GCWRVELLVFMC,0.0459 ± 0.0044,0.185 ± 0.03,0.33 ± 0.015,0.053 ± 0.02,0.0595 ± 0.017,0.0748 ± 0.03,0.0681 ± 0.02,0.205 ± 0.011
GDFYCSSVVLVV,0.401 ± 0.013,0.332 ± 0.032,0.484 ± 0.018,0.278 ± 0.014,0.32 ± 0.031,0.445 ± 0.0082,0.306 ± 0.0044,0.401 ± 0.036
GEGISCLLRRLT,0.662 ± 0.013,0.661 ± 0.024,0.713 ± 0.036,0.2625 ± 0.00058,0.286 ± 0.022,0.544 ± 0.033,0.413 ± 0.057,0.709 ± 0.018
GFLAVTVACVWR,0.0513 ± 0.0097,0.154 ± 0.018,0.258 ± 0.013,0.13 ± 0.014,0.145 ± 0.037,0.213 ± 0.026,0.255 ± 0.048,0.136 ± 0.0021
GFLWFCGVPVGW,0.695 ± 0.026,0.609 ± 0.017,0.72 ± 0.027,0.613 ± 0.031,0.613 ± 0.012,0.707 ± 0.018,0.571 ± 0.2,0.7385 ± 0.0044
GFVSLFRLFIRL,0.241 ± 0.073,0.352 ± 0.032,0.4652 ± 0.0042,0.405 ± 0.024,0.25 ± 0.013,0.3595 ± 0.0028,0.36 ± 0.066,0.218 ± 0.02
GGGHGSSCSVCD,0.67 ± 0.035,0.665 ± 0.023,0.69544 ± 0.00064,0.646 ± 0.013,0.645 ± 0.0097,0.702 ± 0.019,0.744 ± 0.032,0.74 ± 0.034
GGGWGVFVVLWW,0.193 ± 0.012,0.216 ± 0.034,0.4026 ± 0.0031,0.194 ± 0.0027,0.213 ± 0.031,0.355 ± 0.038,0.318 ± 0.028,0.325 ± 0.0065
